The results in this text go back to patent publication US20240209104A1.

Experiment [1] addresses OX40 on OX40 over-expressed cells (UniProt P43489). Briefly: flow cytometry, 1 µg/ml isotype control on OX40 over-expressed cells (PBS: 1388). A general note: Flow cytometry measures light scatter and fluorescence of single cells or particles in a stream.
Experiment [2] shares this target. Briefly: flow cytometry, 1 µg/ml positive reference on OX40 over-expressed cells.

Sequence of OX40 on OX40 over-expressed cells (P43489 29-277): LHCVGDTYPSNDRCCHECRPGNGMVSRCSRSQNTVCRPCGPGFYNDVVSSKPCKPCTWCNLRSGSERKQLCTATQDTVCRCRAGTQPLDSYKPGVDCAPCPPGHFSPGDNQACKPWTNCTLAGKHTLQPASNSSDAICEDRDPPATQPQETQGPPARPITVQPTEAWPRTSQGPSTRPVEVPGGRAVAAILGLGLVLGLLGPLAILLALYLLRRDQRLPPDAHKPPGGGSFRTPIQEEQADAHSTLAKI

Substance “IgG2a isotype control (clone MG2a-53, Biogene) (antibody)” had a Y586 channel PE fluorescence value in experiment [1] of 1830.

For the substance “anti-OX40 antibody (clone ACT35, Biogene)”, the Y586 channel PE fluorescence value in experiment [2] turned out to be 210000.
